According to patent US20060222638A1, “Cholesterol biosynthesis pathway modulators and uses thereof” (priority 2003, published 2006):
“Also recorded” adds a separate entry of the source. Where two headings read alike, the source gives them in different places.

Tests used:
HMG-CoA reductase = target: T1, HMG-CoA reductase (Homo sapiens, UniProt P04035); test: HMGCoA reductase activity assay, HepG2 cells treated with inhibitors, cell proteins used as enzyme source; assay type: cell-based
T1 construct: The cell proteins were used as enzyme source; endogenous in cells; host or cells: HepG2
T1 sequence (P04035 1-888): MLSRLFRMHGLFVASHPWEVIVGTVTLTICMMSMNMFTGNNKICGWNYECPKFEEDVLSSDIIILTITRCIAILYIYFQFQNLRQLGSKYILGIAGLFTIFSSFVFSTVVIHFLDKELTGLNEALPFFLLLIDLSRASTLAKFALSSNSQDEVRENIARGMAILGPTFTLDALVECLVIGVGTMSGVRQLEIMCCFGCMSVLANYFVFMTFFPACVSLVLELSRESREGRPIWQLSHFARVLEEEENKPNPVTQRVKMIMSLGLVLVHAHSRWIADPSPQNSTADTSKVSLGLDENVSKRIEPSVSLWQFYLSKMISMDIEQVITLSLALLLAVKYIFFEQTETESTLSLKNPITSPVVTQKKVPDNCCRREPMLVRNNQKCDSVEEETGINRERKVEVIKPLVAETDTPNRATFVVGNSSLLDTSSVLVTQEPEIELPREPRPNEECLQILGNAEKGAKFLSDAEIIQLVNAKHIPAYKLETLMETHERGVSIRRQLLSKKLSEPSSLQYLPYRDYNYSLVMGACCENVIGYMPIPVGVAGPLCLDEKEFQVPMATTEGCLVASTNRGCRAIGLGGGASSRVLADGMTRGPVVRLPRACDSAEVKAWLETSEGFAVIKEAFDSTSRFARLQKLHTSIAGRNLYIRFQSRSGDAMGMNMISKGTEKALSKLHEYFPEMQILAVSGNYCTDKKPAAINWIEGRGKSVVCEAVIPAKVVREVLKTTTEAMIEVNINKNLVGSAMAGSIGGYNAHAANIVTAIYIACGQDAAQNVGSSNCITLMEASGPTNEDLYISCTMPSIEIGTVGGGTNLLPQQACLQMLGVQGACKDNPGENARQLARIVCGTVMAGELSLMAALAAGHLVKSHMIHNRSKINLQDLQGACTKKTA
Protocol: The cell stocks of Human Hepatoma cell line-HepG2 were cultured in T-25 flask in Eagle's minimum essential medium (MEM), supplemented with 10% fetal bovine serum, and incubated in a humidified incubator (5% CO2) at 37° C.
After 4 hours incubation with the inhibitors, the media was discarded and cells were washed with 0.90%saline. The cells were scraped and collected into a 50 ml tube. The cells were centrifuged at 2400 rpm for 5 min at 4 C, and the resulting cell pellet was washed twice with 10 ml saline. The final cell pellet was resuspended in 30 μl lysis buffer and briefly sonicated. The suspension was centrifuged at 14,000 rpm for 15 min and the supernatant containing the enzyme, HMGCoA reductase, was used for the assay.
In biosynthesis of cholesterol, HMG-CoA reductase is the key enzyme to convert HMG-CoA to its product mevalonate. In the presence of HCl, the mevalonate is converted into mevalonolactone. […] It will retain HMG-CoA, which is negatively charge in the column but not mevalonolactone, which will be eluted out by ammonium formate.
The 50 μl assay buffer (100 mM potassium dihydrogen phosphate, 4 mM dithiothreitol, 20 mM glucose-6-phosphate, 20 unit glucose-6-phosphate dehydrogenase, 2.5 mM NADP^+, 30 μM [14C] HMG-CoA (0.01 μCi) and microsomal protein) was incubated at 37° C. for 1 hour. Reaction was terminated by addition of 25 μl of 2M HCl. After 30 min lactonization of mevalonate to mevalonolactone, 500 μl of 20 mM ammonium formate was added to each sample, spun for 5 min at 14,000 rpm.
Supernatant was applied to the column that is pre-packed with QAE-Sephadex (4 cm), equilibrated with ammonium formate. The first 5 ml fractions was eluted with 20 mM ammonium formate, followed by 5 ml of 0.05M HCl and 10 ml of 0.1M HCl. Radioactivity of the first 5 ml (1 ml fraction) was determined using Beckman LS6500 scintillation counter.

[1] = target: T2, HMG-CoA reductase from human hepatoma HepG2 cells (human) (UniProt P04035); test: cell-based or functional assay
T2 sequence: T1 sequence (P04035 1-888)

HMGCoA reductase = target: T3, HMGCoA reductase (Rattus norvegicus, UniProt P51639); test: HMGCoA reductase assay using the enzyme isolated from rat hepatocytes, inhibitors added to the enzyme assay; assay type: biochemical; settings: enzyme from rat hepatocytes / rat liver microsomes
T3 construct: enzymes purified from the rat liver microsomes; from tissue; host or cells: rat hepatocytes / rat liver microsomes
T3 sequence (P51639 1-887): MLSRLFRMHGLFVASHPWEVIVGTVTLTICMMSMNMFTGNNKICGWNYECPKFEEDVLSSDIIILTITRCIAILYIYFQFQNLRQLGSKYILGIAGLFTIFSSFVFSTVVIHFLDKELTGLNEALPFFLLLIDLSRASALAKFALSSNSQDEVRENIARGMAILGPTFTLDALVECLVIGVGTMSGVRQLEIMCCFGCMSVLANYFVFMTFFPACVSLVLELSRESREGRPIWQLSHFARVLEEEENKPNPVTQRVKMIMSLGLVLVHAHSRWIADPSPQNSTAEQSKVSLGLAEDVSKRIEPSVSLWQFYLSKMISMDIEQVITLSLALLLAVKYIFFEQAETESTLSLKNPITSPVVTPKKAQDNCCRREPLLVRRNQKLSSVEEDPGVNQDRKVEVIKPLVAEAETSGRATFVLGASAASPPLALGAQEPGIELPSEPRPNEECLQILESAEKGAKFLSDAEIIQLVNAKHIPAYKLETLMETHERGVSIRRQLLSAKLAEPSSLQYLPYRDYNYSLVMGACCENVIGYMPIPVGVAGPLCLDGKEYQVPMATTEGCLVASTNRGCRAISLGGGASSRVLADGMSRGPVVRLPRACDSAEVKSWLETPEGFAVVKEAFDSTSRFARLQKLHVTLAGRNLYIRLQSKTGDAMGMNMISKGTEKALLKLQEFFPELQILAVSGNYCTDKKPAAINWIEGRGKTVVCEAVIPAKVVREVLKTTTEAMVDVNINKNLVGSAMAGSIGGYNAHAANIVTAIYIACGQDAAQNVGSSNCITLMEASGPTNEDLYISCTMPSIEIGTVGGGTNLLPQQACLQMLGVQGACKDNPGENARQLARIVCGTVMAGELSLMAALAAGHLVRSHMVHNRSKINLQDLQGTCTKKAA

HepG2 cell = test: Microarray analysis (global gene expression, HG_U133A chips) of treated HepG2 cells; assay type: cell-based, human
Protocol: The global gene expression (DNA microarray) analysis was carried out on human gene chips (HG_U133A). […] Genes showing two-fold signal to log ratio in expression from two independent experiments were scored as significant.

[2] = test system: HepG2 cell protein profile; test: Protein profiling by SELDI-TOF (H4 and NP20 chips) of treated HepG2 cells; assay type: cell-based, human; settings: Table 3A, hydrophobic chip H4
Excerpt: As for the protein profiling data, the profiles as shown in Table 3 were obtained by surface-enhanced laser […] ionization-time of flight mass spectro-photometry (SELDI-TOF) on treated and control samples using the H4 (hydrophobic) and the NP20 (hydrophilic) chips.

[3] = HepG2 cells treated with synthetic peptides or statins at 10 μM, vs untreated cells
[4] = HepG2, read-out: % of inhibition on HMG-CoA reductase activity, DMSO medium

PAPFVKLCTCQGIDYDNSFFFG (Buthus martensii Karsch) [Peptide 3]
% of inhibition on HMG-CoA reductase activity, Aqueous medium (HMG-CoA reductase; [3]): 10%
% of inhibition on HMG-CoA reductase activity, DMSO medium (HMG-CoA reductase; [3]): 15%

KLHLASGGSCQQPAPFVKL (Buthus martensii Karsch) [Peptide 2]
% of inhibition on HMG-CoA reductase activity, Aqueous medium (HMG-CoA reductase; [3]): 30%
% of inhibition on HMG-CoA reductase activity, DMSO medium (HMG-CoA reductase; [3]): 7%

CC[C@H](C)C(=O)O[C@H]1CCC=C2C=C[C@H](C)[C@H](CC[C@@H]3C[C@@H](O)CC(=O)O3)[C@H]21 [Mevastatin, reference compound]
% of inhibition on HMG-CoA reductase activity, Aqueous medium (HMG-CoA reductase; 10 µM): 35%
% of inhibition on HMG-CoA reductase activity, DMSO medium (HMG-CoA reductase; 10 µM): 60%

CCC(C)(C)C(=O)O[C@H]1C[C@@H](C)C=C2C=C[C@H](C)[C@H](CC[C@@H]3C[C@@H](O)CC(=O)O3)[C@H]21 [Simvastatin, reference compound]
inhibition at 10 µM (HMG-CoA reductase; HepG2, read-out: % of inhibition on HMG-CoA reductase activity, Aqueous medium): 35%
inhibition at 10 µM (HMG-CoA reductase; [4]): 65%

CC(C)c1c(C(=O)Nc2ccccc2)c(-c2ccccc2)c(-c2ccc(F)cc2)n1CC[C@@H](O)C[C@@H](O)CC(=O)O [Atorvastatin, reference compound]
inhibition at 10 µM (HMG-CoA reductase; [4]): 70%

QPAPFVKLCTCQGI (Buthus martensii Karsch) [Peptide 1]
% of inhibition on HMG-CoA reductase activity, Aqueous medium (HMG-CoA reductase; [3]): 20%
% of inhibition on HMG-CoA reductase activity, DMSO medium (HMG-CoA reductase; [3]): 20%

SPWNEGD (Buthus martensii Karsch) [Peptide 8]
% of inhibition on HMG-CoA reductase activity, Aqueous medium (HMG-CoA reductase; [3]): 1%

QGIDYDNSFFFGALEKQCPK (Buthus martensii Karsch) [Peptide 4]
% of inhibition on HMG-CoA reductase activity, Aqueous medium (HMG-CoA reductase; [3]): 7%

GDTYYG (Buthus martensii Karsch) [Peptide 9]
% of inhibition on HMG-CoA reductase activity, Aqueous medium (HMG-CoA reductase; [3]): 3%

LSPWNEGDTYYGCQR (Buthus martensii Karsch) [Peptide 7]
% of inhibition on HMG-CoA reductase activity, Aqueous medium (HMG-CoA reductase; [3]): 2%

GCQRQTDEFCNKICKLHLASG (Buthus martensii Karsch) [Peptide 5]
% of inhibition on HMG-CoA reductase activity, Aqueous medium (HMG-CoA reductase; [3]): 2%

CC(C)n1c(/C=C/C(O)CC(O)CC(=O)O)c(-c2ccc(F)cc2)c2ccccc21 (centres unmarked) [Fluvastatin, reference compound]
inhibition at 10 µM (HMG-CoA reductase; HepG2 cells treated with synthetic peptides or statins at 10 μM, vs untreated cells, read-out: % of inhibition on HMG-CoA reductase activity, DMSO medium): 74%

DSLSPWNEGDTYYG (Buthus martensii Karsch) [Peptide 6]
% of inhibition on HMG-CoA reductase activity, Aqueous medium (HMG-CoA reductase; [3]): 4%

B1: JCH2 native protein purified from Buthus martensii Karsch venom (protein)
chain: DSLSPWNEGDTYYGCQRQTDEFCNKICKLHLASGGSCQQPAPFVKLCTCQGIDYDNSFFFGALEKQCPKLRE
% of inhibition on HMG-CoA reductase activity, aqueous medium, JCH2 at 0.6 µM (10 µg) [1]: 30%
HMGCoA reductase inhibitory activity compared with statins (in words) (HMG-CoA reductase; HepG2 cell HMGCoA reductase, JCH2 0.6 μM vs statins 10 μM): lowering the HMGCoA reductase activity at much lower concentrations than the known inhibitors; also recorded: higher inhibitory activity
% of inhibition on HMG-CoA reductase activity, Aqueous medium (HMG-CoA reductase; HepG2 cells treated with native proteins at 10 μg each (JCH2 0.6 μM), vs untreated cells): 30%
HMGCoA reductase inhibitory activity (in words) (HMGCoA reductase): higher inhibitory activity
HMGCoA reductase mRNA (in words) (HepG2 cell; microarray): reducing the reductase mRNA
mevalonate, the precursor for cholesterol biosynthesis (in words) (HepG2 cell; microarray analysis): lowering the mevalonate
ApoC-II/III (8.8 kDa) [2]: ↑ ↑
StAR related lipid transfer protein (23.0 kDa) [2]: ↑ ↑
